Results: patent publication US20100239556A1, “PROMOTING ECM PRODUCTION BY FIBROBLAST CELLS AND/OR PROMOTING MIGRATION OF FIBROBLAST CELLS IN A BIOLOGICAL SYSTEM” (TGR BioScience Pty Ltd., priority 2006, published 2010)

What was measured:
HFF cells = test: Collagen I production in the presence of dexamethasone; type: cell-based, human
Experimental: (§1) Primary human foreskin fibroblast cells (HFF) were seeded into 96 well plates at a density of 1.2×10^4 cells/well and cultured overnight in 10% fetal bovine serum/Dulbecco's minimum essential media (10% FBS/DMEM) at 37° C. and 5% CO2. The cells were then starved overnight in serum free DMEM and triplicate wells treated for six hours with a range of doses of proteins with peroxidase activity; horse radish peroxidase (HRP; 0.2-50 ug/ml), Arthromyces ramosus peroxidase (ARP; 0.2-50 ug/ml), microperoxidase (MP; 8-500 ug/ml), soy bean peroxidase (SBP; 0.2-100 ug/ml) and lactoperoxidase (LP; 10-310 ug/ml) (all obtained from Sigma-Aldrich). At the end of the six hour treatment period, the media was aspirated and replaced with fresh serum free DMEM and the cells cultured for a further 72 hours. After 72 hours the culture media was collected for assessment of secreted, soluble collagen types I, III and VI as well as fibronectin protein and the cells assessed for viability/growth using an alamar blue fluorescent dye assay. This assay measures the reduction of oxidized, blue nonfluorescent Alamar Blue reagent to a pink fluorescent dye in the cell medium, such that the higher the amount of reduction, the greater the cell number and/or activity (O'Brien Eur J Biochem 267 2000). Briefly, cells were bathed in a 10% Alamar Blue/phosphate-buffered saline (PBS) solution for 30-60 minutes and fluorescence measured at wavelengths of 485 nm excitation and 595 nm emission using a Wallac Victor Multilabel HTS counter. Relative fluorescent units (RFU) for each sample were normalized to control wells (DMEM only treated cells) and data expressed as mean±standard error of the mean (sem) for triplicate wells. Experiments were repeated at least three times with the combined data from all experiments shown.
The amount of soluble collagen types I, III, and VI in HFF conditioned media was measured by a direct coat ELISA method using standard curves constructed from purified human collagen I, III or VI (extracted from human placenta; col I, BD Biosciences; col III and VI, Rocklands Immunochemicals) and fibronectin (extracted from human plasma, Chemicon). Samples and standards (20 μl/well) were added to a 384 well spectraplate (Packard BioScience) and left at room temperature (RT) overnight. […] After a final wash (6×PBS-T), enhancement solution was added for at least 10 minutes and fluorescence measured at excitation 340 nm and emission 615 nm using a Wallac Victor Multilabel HTS counter. The respective ECM concentration of each sample was determined from the standard curve (μg/ml) and normalized to control wells (DMEM only treated cells) with the mean±sem for triplicate wells calculated. […]

[1] = test system: human foreskin fibroblast cells (HFF); test: Alamar blue viability/growth assay; type: cell-based; settings: 72 hours
Experimental: as §1, with “At the end of the six hour treatment period, the media was aspirated and replaced with fresh serum free DMEM and the cells cultured for a further 72 hours.” left out, “This assay measures the reduction of oxidized, blue nonfluorescent Alamar Blue reagent to a pink fluorescent dye in the cell medium, such that the higher the amount of reduction, the greater the cell number and/or activity (O'Brien Eur J Biochem 267 2000).” left out, “Experiments were repeated at least three times with the combined data from all experiments shown.” left out

[2] = test system: human foreskin fibroblast cells (HFF); test: Soluble collagen I, III and VI in HFF conditioned media (direct coat ELISA); type: cell-based; settings: 30 μg/ml, 72 hours
Experimental: as §1, with “After 72 hours the culture media was collected for assessment of secreted, soluble collagen types I, III and VI as well as fibronectin protein and the cells assessed for viability/growth using an alamar blue fluorescent dye assay.” left out
The amount of soluble collagen types I, III, and VI in HFF conditioned media was measured by a direct coat ELISA method using standard curves constructed from purified human collagen I, III or VI (extracted from human placenta; col I, BD Biosciences; col III and VI, Rocklands Immunochemicals) and fibronectin (extracted from human plasma, Chemicon). Samples and standards (20 μl/well) were added to a 384 well spectraplate (Packard BioScience) and left at room temperature (RT) overnight. The spectraplate was then washed 6 times with PBS-tween 0.05% (PBS-T) and 2.5% bovine serum albumin (BSA)/PBS blocking solution added to each well and the plate incubated for 1 hour at RT. The plate was then washed 6 times with PBS-T and primary antibody (0.25 μg/ml rabbit-anti-human-collagen I polyclonal; 2 μg/ml rabbit-anti-human-collagen III polyclonal; 0.25 μg/ml rabbit-anti-human-collagen VI polyclonal; 0.2 μg/ml rabbit-anti-human-fibronectin polyclonal, all from Rockland Immunochemicals) in 5% non-fat dairy milk added to each well for four hours at RT. After washing (6×PBS-T), europium tagged anti-rabbit secondary antibody (0.5 μg/ml 1% BSA/PBS; Wallac Oy) was added for 1 hour at RT. After a final wash (6×PBS-T), enhancement solution was added for at least 10 minutes and fluorescence measured at excitation 340 nm and emission 615 nm using a Wallac Victor Multilabel HTS counter. The respective ECM concentration of each sample was determined from the standard curve (μg/ml) and normalized to control wells (DMEM only treated cells) with the mean±sem for triplicate wells calculated. Experiments were repeated at least three times with the combined data from all experiments shown.

[3] = test system: human foreskin fibroblast cells (HFF cells); test: Repeated stimulation of collagen I production; type: cell-based; settings: further 5 days without second stimulation
Experimental: Experiments were performed to ensure human fibroblast cells could be stimulated to increase ECM protein production by proteins having peroxidase activity after more than one application of the proteins having peroxidase activity. The capacity to respond repeatedly to the proteins having peroxidase activity provides important utility for the generation of ECM in vitro, particularly given that spent culture media needs to be replaced on a regular basis to maintain the viability of the cells. These experiments were performed using human foreskin fibroblast cells (HFF cells) seeded into 96 well plates at a density of 1.2×10^4 cells/well and cultured for one week in 10% fetal bovine serum/Dulbecco's minimum essential media (10% FBS/DMEM) at 37° C. and 5% CO2 (as described in Example 3). The confluent cells were then starved overnight in serum free DMEM and triplicate wells treated for six hours with MP, ARP and LP as representative proteins having peroxidase activity or the control agents transforming growth factor β2 (TGFβ2; R&D Systems) and 10% FBS (JRH BioSciences). After 48 hours, the conditioned media was collected for measurement of collagen I (as a representative ECM protein) and the cells either restimulated for six hours with fresh solutions containing proteins having peroxidase activity or control agents or the media was replaced with fresh serum free DMEM. The cells were cultured for a further 5 days after which the media was collected a second time for the measurement of collagen I. Media was also collected from replicate wells treated at the start of the experiment and left for 7 days (total culture period) for comparison.

dermis = test: Fibrogenic response after intradermal injection; type: in vivo, Sprague-Dawley rats; settings: LP 125 μg, TGFβ 0.5 μg, 3 days
Experimental: Groups of up to 4-8 female Sprague-Dawley rats were lightly anaesthetized and the dorsum shaved. At different sites on their dorsum, each rat received a bolus, intradermal injection of 4 doses of a protein with peroxidase activity (LP, […]; HRP, 1.25-25 μg; SBP, 1.25-25 μg; or micro-peroxidase [MP], 5-125 μg), a vehicle control or TGFβ2 as a positive control. Arthromyces ramosus peroxidase (ARP) was also injected at one dose of 25 μg. Proteins with peroxidase activity were injected in a volume of 50 μl which was sufficient to create a small blister in the skin that resolved within a few minutes. Across the group of rats, each dose of proteins with peroxidase activity was injected into each of the different injection sites to control for any site-related, intra-rat variation. The rats were returned to their cage and left alone for 3 days after which they were killed by CO2 asphyxiation and the skin at the injection sites collected for analysis. The skin at the injection sites was excised using a 6 mm biopsy punch with each piece bisected and fixed in 10% buffered formalin. Fixed tissue was processed for histological assessment by graded dehydration and mounting in paraffin blocks. Blocks were sectioned and sections stained with haematoxylin and eosin (H&E) and Masson's trichrome for qualitative analysis by an experienced pathologist. H&E stained sections were scored for the “fibroblast reaction” (1+-4+) to reflect the number of fibroblast cells identified at the injection site, with 4+ representing the greatest response. H&E and Massons trichrome stained sections were used to evaluate the amount of deposited, collagen-rich extracellular matrix (ECM) that was associated with the fibroblast reaction at each injection site. The collagen-rich ECM deposition was scored 1+-3+ with 3+ representing the greatest response. The scores were combined across the group of rats and statistical analysis performed using a Kruskal-Wallis one way analysis of variance on ranks (ANOVA) followed by post-hoc t-test comparing the response of the proteins with peroxidase activity to the control using Dunn's or Dunnett's method, p<0.05 was considered significant.

Molecule: C[C@@H]1C[C@H]2[C@@H]3CCC4=CC(=O)C=C[C@]4(C)[C@@]3(F)[C@@H](O)C[C@]2(C)[C@@]1(O)C(=O)CO [dexamethasone, reference compound]
- inhibition at 20 µM (HFF cells; Homo sapiens, HFF, dexamethasone 20 μM, read-out: inhibition of collagen stimulated by ARP): ~30%

Molecule: recombinant ascorbate peroxidase [APX]
- HFF cell growth or viability [1]: Neither APX nor MPO had a major effect

B1: myeloperoxidase (protein, UniProt P05164 165-745, looked up)
Myeloperoxidase: VTCPEQDKYRTITGMCNNRRSPTLGASNRAFVRWLPAEYEDGFSLPYGWTPGVKRNGFPVALARAVSNEIVRFPTDQLTPDQERSLMFMQWGQLLDHDLDFTPEPAARASFVTGVNCETSCVQQPPCFPLKIPPNDPRIKNQADCIPFFRSCPACPGSNITIRNQINALTSFVDASMVYGSEEPLARNLRNMSNQLGLLAVNQRFQDNGRALLPFDNLHDDPCLLTNRSARIPCFLAGDTRSSEMPELTSMHTLLLREHNRLATELKSLNPRWDGERLYQEARKIVGAMVQIITYRDYLPLVLGPTAMRKYLPTYRSYNDSVDPRIANVFTNAFRYGHTLIQPFMFRLDNRYQPMEPNPRVPLSRVFFASWRVVLEGGIDPILRGLMATPAKLNRQNQIAVDEIRERLFEQVMRIGLDLPALNMQRSRDHGLPGYNAWRRFCGLPQPETVGQLGTVLRNLKLARKLMEQYGTPNNIDIWMGGVSEPLKRKGRVGPLLACIIGTQFRKLRDGDRFWWENEGVFSMQQRQALAQISLPRIICDNTGITTVSKNNIFMSNSYPRDFVNCSTLPALNLASWREAS
- increase in collagen I production [2]: 3 fold
- HFF cell growth or viability [1]: Neither APX nor MPO had a major effect

B2: transforming growth factor β2 (protein, UniProt P61812 303-414, looked up)
Transforming growth factor …: ALDAAYCFRNVQDNCCLRPLYIDFKRDLGWKWIHEPKGYNANFCAGACPYLWSSDTQHSRVLSLYNTINPEASASPCCVSQDLEPLTILYYIGKTPKIEQLSNMIVKSCKCS
notes: control agent, fibrogenic factor (R&D Systems)
- collagen I production when left untreated after the media change at day 2 [3]: maintained level of collagen I production
- number of fibroblasts present at the injection site (H&E images) (dermis): profound increase in the number of fibroblasts
- maximum increase in collagen I levels (HFF cells; 1-10 ng/ml, no dexamethasone): 2-2.5 fold
